Laboratory results published in IntAct's records for PubMed 18084303.

B1: Neuroligin-1 (Mus musculus), Q99K10-1 (parent)
chain: MALPRCMWPNYVWRAMMACVVHRGSGAPLTLCLLGCLLQTFHVLSQKLDDVDPLVTTNFGKIRGIKKELNNEILGPVIQFLGVPYAAPPTGEHRFQPPEPPSPWSDIRNATQFAPVCPQNIIDGRLPEVMLPVWFTNNLDVVSSYVQDQSEDCLYLNIYVPTEDGPLTKKHTDDLGDNDGAEDEDIRDSGGPKPVMVYIHGGSYMEGTGNLYDGSVLASYGNVIVITVNYRLGVLGFLSTGDQAAKGNYGLLDLIQALRWTSENIGFFGGDPLRITVFGSGAGGSCVNLLTLSHYSEGNRWSNSTKGLFQRAIAQSGTALSSWAVSFQPAKYARILATKVGCNVSDTVELVECLQKKPYKELVDQDVQPARYHIAFGPVIDGDVIPDDPQILMEQGEFLNYDIMLGVNQGEGLKFVENIVDSDDGVSASDFDFAVSNFVDNLYGYPEGKDVLRETIKFMYTDWADRHNPETRRKTLLALFTDHQWVAPAVATADLHSNFGSPTYFYAFYHHCQTDQVPAWADAAHGDEVPYVLGIPMIGPTELFPCNFSKNDVMLSAVVMTYWTNFAKTGDPNQPVPQDTKFIHTKPNRFEEVAWTRYSQKDQLYLHIGLKPRVKEHYRANKVNLWLELVPHLHNLNDISQYTSTTTKVPSTDITLRPTRKNSTPVTSAFPTAKQDDPKQQPSPFSVDQRDYSTELSVTIAVGASLLFLNILAFAALYYKKDKRRHDVHRRCSPQRTTTNDLTHAPEEEIMSLQMKHTDLDHECESIHPHEVVLRTACPPDYTLAMRRSPDDIPLMTPNTITMIPNTIPGIQPLHTFNTFTGGQNNTLPHPHPHPHSHSTTRV

Variants of: B1
Details: with NRXN1, P58400-1
Chain of NRXN1, P58400-1 (P58400 other isoform, or with tags, fused parts or gaps): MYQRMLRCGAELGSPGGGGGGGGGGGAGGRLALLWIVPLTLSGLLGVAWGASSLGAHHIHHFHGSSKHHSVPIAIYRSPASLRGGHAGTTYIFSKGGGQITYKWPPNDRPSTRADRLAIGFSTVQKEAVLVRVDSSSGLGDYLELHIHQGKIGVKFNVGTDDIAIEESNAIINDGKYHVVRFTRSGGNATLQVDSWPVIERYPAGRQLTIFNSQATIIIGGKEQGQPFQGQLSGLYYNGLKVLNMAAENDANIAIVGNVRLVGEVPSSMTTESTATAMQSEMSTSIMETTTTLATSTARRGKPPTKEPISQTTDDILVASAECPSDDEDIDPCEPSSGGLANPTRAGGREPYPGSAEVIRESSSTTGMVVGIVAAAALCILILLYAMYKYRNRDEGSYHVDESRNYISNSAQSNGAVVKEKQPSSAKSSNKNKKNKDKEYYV

| Variant | effect of a mutation on the interaction |
| --- | --- |
| E397A | disrupting interaction |
| N400A | disrupting interaction |
